The record followed here is patent US9458483B2, “Compositions comprising a polypeptide having cellulolytic enhancing activity and a bicyclic compound and uses thereof” (Novozymes, Inc., priority 2010, dated 2016).

For data set [1], the system named is Trichoderma reesei cellulase composition. Format: biochemical. The method, then:
(§1) Control saccharification reactions containing equivalent methanol-containing buffer concentrations, 2% and 10% (v/v) methanol, or no methanol, were performed on each 96-well plate. […] All experiments were performed in triplicate, unless otherwise indicated.
(§2) The filtrates were analyzed for sugar content as described below. […] Data were processed using MICROSOFT EXCEL® software (Microsoft, Richland, Wash., USA), or […]® software (Synergy Software, Reading, Pa., USA).
Similarly, the effect of each bicyclic compound tested in the absence of GH61 polypeptide was quantified by calculating the ratio of percent conversion for the T. reesei cellulase composition without supplemented GH61 polypeptide having cellulolytic enhancing activity in the presence of each compound to the percent conversion in the absence of each compound:
In general, the bicyclic compound effect(no GH61) was approximately 1, though the methanol solvent was inhibitory to cellulolysis (Example 3).

For data set [2] the test system is unchanged. Format: biochemical. Particulars: for GH61 effect: 2% methanol. The method, then:
as §1, §2
[formula] where 1.111 represents the mass conversion factor accounting for the hydration of glucose produced from the cellulose polymer. The fractional hydrolysis is defined herein as the conversion expressed as a fraction rather than as a percent (i.e., % conversion/100).
[formula] […] Thus for saccharification reactions where only the presence of a bicyclic compound differs, a difference in GH61 effect can be attributed to the effect of the bicyclic compound on the cellulolytic enhancing effect of the GH61 polypeptide.

Where two headings read alike, the source gives them in different places.

Consider `CO` [methanol], for which the “effect on saccharification by the T. reesei cellulase composition” value in data set [1] (2% and 10% (v/v) methanol) is given as “inhibited saccharification”. The “bicyclic compound effect(no GH61)” value in data set [1] (2% methanol, 3 days) is given as 0.93; in data set [1] (2% methanol, 7 days), 0.90; in data set [1] (10% methanol, 3 days), 0.43; in data set [1] (10% methanol, 7 days), 0.35.

B1: T. aurantiacus GH61A polypeptide: GH61A polypeptide having cellulolytic enhancing activity (SEQ ID NO: 14), recombinantly prepared in Aspergillus oryzae JaL250 (protein, listed as Thermoascus aurantiacus)
chain: MSFSKIIATAGVLASASLVAGHGFVQNIVIDGKYYGGYLVNQYPYMSNPPEVIAWSTTATDLGFVDGTGYQTPDIICHRGAKPGALTAPVSPGGTVELQWTPWPDSHHGPVINYLAPCNGDCSTVDKTQLEFFKIAESGLINDDNPPGIWASDNLIAANNSWTVTIPTTIAPGNYVLRHEIIALHSAQNQDGAQNYPQCINLQVTGGGSDNPAGTLGTALYHDTDPGILINIYQKLSSYIIPGPPLYTG
Take B1: the figures for the GH61 effect in data set [2] (3 days of hydrolysis) and in data set [2] (7 days of hydrolysis) were 0.98±0.078 and 1.01±0.06, respectively. For the same molecule, the “GH61 effect (Equation 4)” value in data set [2] (10% methanol, 3 days) came out at 1.00±0.068; in data set [2] (3 days of saccharification, no bicyclic compound, no methanol), 0.98±0.064; in data set [2] (7 days of saccharification, no bicyclic compound, no methanol), 0.99±0.051. The “percent conversion in the presence of 50% (w/w) T. aurantiacus GH61A polypeptide” value is listed as 11.8±0.379% in data set [2] (10% methanol, 3 days of hydrolysis); 15.1±0.388% in data set [2] (10% methanol, 7 days of hydrolysis); 26.2±1.17% in data set [2] (3 days of hydrolysis, no bicyclic compound, no methanol, averaged over all plates); 41.4±1.67% in data set [2] (7 days of hydrolysis, no bicyclic compound, no methanol, averaged over all plates). For the same molecule, the “GH61 effect on AVICEL” value in data set [2] (in the absence of bicyclic compounds) turned out to be 1.
